Seven molecules from patent publication US20250076311A1 (Chugai, published 2025) can be followed below.

Assay [1] concerns the target T1, human FcγRIIb extracellular domain, His-tagged (human, UniProt P31994 43-217).
T1 construct: also called FcgRIIb (human); not shown: C-terminal His-tag
T1 sequence: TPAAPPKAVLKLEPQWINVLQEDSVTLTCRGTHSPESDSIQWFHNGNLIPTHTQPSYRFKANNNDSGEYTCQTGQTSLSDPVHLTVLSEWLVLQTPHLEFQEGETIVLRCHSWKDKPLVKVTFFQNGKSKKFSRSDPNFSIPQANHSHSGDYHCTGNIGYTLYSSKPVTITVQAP
Put plainly: SPR Biacore, KD(SG1)/KD(variant). Here is the method:
(§1) The kinetic analysis of interactions between these antibodies and FcγR was carried out using BIACORE® T200 or BIACORE® 4000 (GE Healthcare). HBS-EP+ (GE Healthcare) was used as the running buffer, and the measurement temperature was set to 25° C. […] After the measurement, the antibody captured on the chip was washed off by allowing reaction with 10 mM glycine-HCl, pH1.5 and 25 mM NaOH so that the chip was regenerated and used repeatedly. The sensorgrams obtained as measurement results were analyzed by the 1:1 Langmuir binding model using the BIACORE® Evaluation Software to calculate the binding rate constant ka (L/mol/s) and dissociation rate constant kd (1/s), and the dissociation constant KD (mol/L) was calculated from these values. […] Regarding such interactions, KD values were calculated using the following 1:1 binding model described in BIACORE® T100 Software Handbook BR1006-48 Edition AE.

Assay [2] has as its target T2, human FcγRIIaR extracellular domain, His-tagged (human, UniProt P12318 34-217).
T2 construct: also called human FcγRIIa (type R); FcgRIIaR; not shown: C-terminal His-tag
T2 chain: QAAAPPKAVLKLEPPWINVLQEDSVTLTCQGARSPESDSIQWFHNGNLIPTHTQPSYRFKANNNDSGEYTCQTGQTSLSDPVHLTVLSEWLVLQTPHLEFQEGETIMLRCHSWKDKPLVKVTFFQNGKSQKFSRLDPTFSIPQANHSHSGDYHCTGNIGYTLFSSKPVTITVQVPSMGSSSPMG
Put plainly: SPR Biacore, KD(SG1)/KD(variant). Here is the method:
as §1

In assay [3] the target is T3, cynomolgus monkey FcγRIIIaS extracellular domain, His-tagged (cynomolgus monkey, UniProt A3RFZ7 21-206 (rhesus entry)).
T3 construct: also called cyno FcγRIIIaS; cynoFcγRIIIaS; not shown: His-tag added to the C-terminus
Put plainly: SPR (BIACORE), antibody captured on chip, FcγR as analyte, 25 C; KD of M103205H795-SG1 divided by KD of the variant. Here is the method: as §1

For assay [4], the target named is T4, cynomolgus monkey FcγRIIa2 extracellular domain with C-terminal His-tag (cynomolgus monkey).
T4 construct: also called cyno FcgRIIa2; cynoFcγRIIa2; not shown: His-tag added to the C-terminus
T4 chain: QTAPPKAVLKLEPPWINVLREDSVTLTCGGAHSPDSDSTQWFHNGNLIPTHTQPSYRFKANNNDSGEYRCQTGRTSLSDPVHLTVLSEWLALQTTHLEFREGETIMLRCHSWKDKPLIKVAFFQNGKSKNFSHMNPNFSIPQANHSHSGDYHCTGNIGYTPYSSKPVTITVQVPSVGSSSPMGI
Put plainly: SPR (BIACORE), antibody captured, FcgR analyte.

Assay [5] concerns the target T5, human FcγRIIIaV extracellular domain with C-terminal His-tag (human, UniProt P08637 17-208).
T5 construct: also called human FcgRIIIaV; not shown: His-tag added to the C-terminus
Put plainly: SPR (BIACORE), antibody captured, FcgR analyte.

Assay [6] deals with T6, human FcγRIIaR extracellular domain with C-terminal His-tag (human, UniProt P12318 34-217).
T6 construct: also called human FcgRIIaR; FcγRIIa type R; not shown: His-tag added to the C-terminus
T6 chain: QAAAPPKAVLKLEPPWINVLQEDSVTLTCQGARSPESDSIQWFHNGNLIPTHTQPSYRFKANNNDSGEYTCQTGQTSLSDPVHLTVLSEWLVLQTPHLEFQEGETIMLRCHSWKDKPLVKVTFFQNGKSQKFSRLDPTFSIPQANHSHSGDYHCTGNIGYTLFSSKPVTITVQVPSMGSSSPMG
Put plainly: SPR (BIACORE), antibody captured, FcgR analyte.

Assay [7] addresses T7, cynomolgus monkey FcγRIIIaS extracellular domain with C-terminal His-tag (cynomolgus monkey, UniProt A3RFZ7 21-206 (rhesus entry)).
T7 construct: also called cyno FcgRIIIaS; cynoFcγRIIIaS; not shown: His-tag added to the C-terminus
Put plainly: SPR (BIACORE), antibody captured, FcgR analyte.

The target in assay [8] is T8, human FcγRIIb extracellular domain with C-terminal His-tag (human, UniProt P31994 43-217).
T8 construct: also called human FcgRIIb; not shown: His-tag added to the C-terminus
T8 sequence: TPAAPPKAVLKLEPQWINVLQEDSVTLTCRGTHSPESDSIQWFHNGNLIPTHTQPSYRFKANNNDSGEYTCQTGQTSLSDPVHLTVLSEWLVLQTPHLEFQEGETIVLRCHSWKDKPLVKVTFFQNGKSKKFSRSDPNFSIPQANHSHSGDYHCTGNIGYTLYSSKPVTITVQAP
Put plainly: SPR (BIACORE), antibody captured, FcgR analyte.

T7 sequence (A3RFZ7 21-206): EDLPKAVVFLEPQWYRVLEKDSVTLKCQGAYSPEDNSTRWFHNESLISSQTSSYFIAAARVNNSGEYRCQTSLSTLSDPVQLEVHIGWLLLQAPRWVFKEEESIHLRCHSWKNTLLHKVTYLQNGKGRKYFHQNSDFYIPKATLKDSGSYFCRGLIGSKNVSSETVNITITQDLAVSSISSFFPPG
T5 sequence (P08637 17-208 F176V): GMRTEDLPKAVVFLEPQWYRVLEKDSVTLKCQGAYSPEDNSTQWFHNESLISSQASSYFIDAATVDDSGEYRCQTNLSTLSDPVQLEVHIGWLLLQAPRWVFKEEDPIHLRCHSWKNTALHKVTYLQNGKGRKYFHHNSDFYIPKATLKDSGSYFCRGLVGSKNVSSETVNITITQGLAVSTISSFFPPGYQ

B1: M103205H795-MY012/M103202L889-SK1 (antibody, human IgG1, kappa, name in EU numbering)
heavy: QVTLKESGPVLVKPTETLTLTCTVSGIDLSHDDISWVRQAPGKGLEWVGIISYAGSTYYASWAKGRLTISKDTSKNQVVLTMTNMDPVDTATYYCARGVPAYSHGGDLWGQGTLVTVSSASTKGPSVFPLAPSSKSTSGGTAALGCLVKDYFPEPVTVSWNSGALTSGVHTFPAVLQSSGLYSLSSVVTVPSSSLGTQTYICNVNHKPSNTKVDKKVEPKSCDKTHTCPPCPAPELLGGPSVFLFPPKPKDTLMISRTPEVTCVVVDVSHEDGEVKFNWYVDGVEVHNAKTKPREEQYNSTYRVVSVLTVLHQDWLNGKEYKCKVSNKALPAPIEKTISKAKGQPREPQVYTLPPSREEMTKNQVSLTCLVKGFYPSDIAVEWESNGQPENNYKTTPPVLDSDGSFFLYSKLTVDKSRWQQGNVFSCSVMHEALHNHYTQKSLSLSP
light: DIVMTQSPATLSLSPGERATLSCTSSQSVYHANWLSWFQQKPGQPPKLLIYWASTLAYGVPSRFSGSGSGTDFTLTISSLQPEDAATYYCAGGYGGGRYAFGQGTKVEIKRTVAAPSVFIFPPSDEQLKSGTASVVCLLNNFYPREAKVQWKVDNALQSGNSQESVTEQDSKDSTYSLSSTLTLSKADYEKHKVYACEVTHQGLSSPVTKSFNRGEC
notes: Substitution introduced into M103205H795-SG1; EU numbering
In the case of B1, the “KD fold (SG1 = 1)” value came to 5.1 fold in assay [1] and 4 fold in assay [2].

B2: M103205H795-MY065/M103202L889-SK1 (antibody, human IgG1, kappa, name in EU numbering)
heavy: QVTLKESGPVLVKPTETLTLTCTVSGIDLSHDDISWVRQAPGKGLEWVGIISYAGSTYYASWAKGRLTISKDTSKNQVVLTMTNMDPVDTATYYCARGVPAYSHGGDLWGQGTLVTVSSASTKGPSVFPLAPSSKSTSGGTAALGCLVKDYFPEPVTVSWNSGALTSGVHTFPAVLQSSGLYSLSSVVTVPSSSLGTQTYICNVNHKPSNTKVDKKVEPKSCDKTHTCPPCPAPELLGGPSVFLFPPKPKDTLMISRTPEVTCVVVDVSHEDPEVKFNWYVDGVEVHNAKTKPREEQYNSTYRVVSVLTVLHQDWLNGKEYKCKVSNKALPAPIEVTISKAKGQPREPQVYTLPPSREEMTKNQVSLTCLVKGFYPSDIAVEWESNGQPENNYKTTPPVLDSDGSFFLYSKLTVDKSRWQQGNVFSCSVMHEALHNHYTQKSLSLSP
light: DIVMTQSPATLSLSPGERATLSCTSSQSVYHANWLSWFQQKPGQPPKLLIYWASTLAYGVPSRFSGSGSGTDFTLTISSLQPEDAATYYCAGGYGGGRYAFGQGTKVEIKRTVAAPSVFIFPPSDEQLKSGTASVVCLLNNFYPREAKVQWKVDNALQSGNSQESVTEQDSKDSTYSLSSTLTLSKADYEKHKVYACEVTHQGLSSPVTKSFNRGEC
Regarding B2, the “KD fold (SG1 = 1)” value in assay [3] is 3.27 fold.

B3: M103205H795-MY015/M103202L889-SK1 (antibody, human IgG1, kappa, name in EU numbering)
heavy: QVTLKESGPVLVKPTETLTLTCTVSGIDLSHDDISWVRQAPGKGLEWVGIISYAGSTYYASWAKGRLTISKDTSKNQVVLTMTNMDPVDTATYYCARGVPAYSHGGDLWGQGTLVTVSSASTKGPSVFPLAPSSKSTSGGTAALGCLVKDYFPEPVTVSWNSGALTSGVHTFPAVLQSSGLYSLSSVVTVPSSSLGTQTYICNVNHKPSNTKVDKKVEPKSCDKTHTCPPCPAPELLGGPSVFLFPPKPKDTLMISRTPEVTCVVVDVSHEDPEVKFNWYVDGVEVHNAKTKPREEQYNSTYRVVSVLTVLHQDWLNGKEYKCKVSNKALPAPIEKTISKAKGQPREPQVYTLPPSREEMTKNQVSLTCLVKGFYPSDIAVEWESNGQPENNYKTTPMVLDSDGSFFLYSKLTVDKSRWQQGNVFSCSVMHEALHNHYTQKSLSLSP
light: DIVMTQSPATLSLSPGERATLSCTSSQSVYHANWLSWFQQKPGQPPKLLIYWASTLAYGVPSRFSGSGSGTDFTLTISSLQPEDAATYYCAGGYGGGRYAFGQGTKVEIKRTVAAPSVFIFPPSDEQLKSGTASVVCLLNNFYPREAKVQWKVDNALQSGNSQESVTEQDSKDSTYSLSSTLTLSKADYEKHKVYACEVTHQGLSSPVTKSFNRGEC
For B3, in assay [3], the “KD fold (SG1 = 1)” value stood at 3.6 fold.

B4: M103205H795-MY211/M103202L889-SK1 (antibody, human IgG1, kappa, name in EU numbering)
heavy: QVTLKESGPVLVKPTETLTLTCTVSGIDLSHDDISWVRQAPGKGLEWVGIISYAGSTYYASWAKGRLTISKDTSKNQVVLTMTNMDPVDTATYYCARGVPAYSHGGDLWGQGTLVTVSSASTKGPSVFPLAPSSKSTSGGTAALGCLVKDYFPEPVTVSWNSGALTSGVHTFPAVLQSSGLYSLSSVVTVPSSSLGTQTYICNVNHKPSNTKVDKKVEPKSCDKTHTCPPCPAPELLNGPVVFLFPPKPKDTLMISRTPEVTCVVVDVSDEDPEVKFNWYVDGVEVHNAKTKPREEQYNSTYRVVSVLTVLHQDWLNGKEYKCKVSNTALPKPIEKTISKAKGQPREPQVYTLPPSREEMTKNQVSLTCLVKGFYPSDIAVEWESNGQPENNYKTTPPVLDSDGSFFLYSKLTVDKSRWQQGNVFSCSVMHEALHNHYTQKSLSLSP
light: DIVMTQSPATLSLSPGERATLSCTSSQSVYHANWLSWFQQKPGQPPKLLIYWASTLAYGVPSRFSGSGSGTDFTLTISSLQPEDAATYYCAGGYGGGRYAFGQGTKVEIKRTVAAPSVFIFPPSDEQLKSGTASVVCLLNNFYPREAKVQWKVDNALQSGNSQESVTEQDSKDSTYSLSSTLTLSKADYEKHKVYACEVTHQGLSSPVTKSFNRGEC
notes: Fc variant of MS1032LO06-SG1; positions in EU numbering
As to B4, the dissociation constant Kd in assay [4] was 580 nM; in assay [5], 48000 nM; in assay [6], 1300 nM; in assay [7] it was 3000 nM; in assay [8] it was 820 nM.

B5: M103205H795-MY198/M103202L889-SK1 (antibody, human IgG1, kappa, name in EU numbering)
heavy: QVTLKESGPVLVKPTETLTLTCTVSGIDLSHDDISWVRQAPGKGLEWVGIISYAGSTYYASWAKGRLTISKDTSKNQVVLTMTNMDPVDTATYYCARGVPAYSHGGDLWGQGTLVTVSSASTKGPSVFPLAPSSKSTSGGTAALGCLVKDYFPEPVTVSWNSGALTSGVHTFPAVLQSSGLYSLSSVVTVPSSSLGTQTYICNVNHKPSNTKVDKKVEPKSCDKTHTCPPCPAPELLNGPVVFLFPPKPKDTLMISRTPEVTCVVVDVSDEDPEVKFNWYVDGVEVHNAKTKPREEQYNSTYRVVSVLTVLHQDWLNGKEYKCKVSNKALPKPIEKTISKAKGQPREPQVYTLPPSREEMTKNQVSLTCLVKGFYPSDIAVEWESNGQPENNYKTTPMVLDSDGSFFLYSKLTVDKSRWQQGNVFSCSVMHEALHNHYTQKSLSLSP
light: DIVMTQSPATLSLSPGERATLSCTSSQSVYHANWLSWFQQKPGQPPKLLIYWASTLAYGVPSRFSGSGSGTDFTLTISSLQPEDAATYYCAGGYGGGRYAFGQGTKVEIKRTVAAPSVFIFPPSDEQLKSGTASVVCLLNNFYPREAKVQWKVDNALQSGNSQESVTEQDSKDSTYSLSSTLTLSKADYEKHKVYACEVTHQGLSSPVTKSFNRGEC
notes: as for B4
B5: the Kd stood at 330 nM in assay [4], 6900 nM in assay [5] and 2700 nM in assay [7].

B6: M103205H795-MY067/M103202L889-SK1 (antibody, human IgG1, kappa, name in EU numbering)
heavy: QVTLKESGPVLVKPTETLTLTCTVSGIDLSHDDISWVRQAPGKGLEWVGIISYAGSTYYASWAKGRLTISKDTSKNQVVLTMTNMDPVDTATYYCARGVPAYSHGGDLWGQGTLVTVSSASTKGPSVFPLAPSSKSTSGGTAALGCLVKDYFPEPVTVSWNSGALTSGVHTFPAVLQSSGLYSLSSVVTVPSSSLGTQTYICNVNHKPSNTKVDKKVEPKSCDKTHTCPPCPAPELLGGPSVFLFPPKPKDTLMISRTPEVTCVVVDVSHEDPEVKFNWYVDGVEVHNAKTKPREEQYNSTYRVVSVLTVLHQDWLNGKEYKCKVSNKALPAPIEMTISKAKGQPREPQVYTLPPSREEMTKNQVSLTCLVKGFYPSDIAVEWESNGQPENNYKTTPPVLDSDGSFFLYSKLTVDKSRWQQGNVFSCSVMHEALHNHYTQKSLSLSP
light: DIVMTQSPATLSLSPGERATLSCTSSQSVYHANWLSWFQQKPGQPPKLLIYWASTLAYGVPSRFSGSGSGTDFTLTISSLQPEDAATYYCAGGYGGGRYAFGQGTKVEIKRTVAAPSVFIFPPSDEQLKSGTASVVCLLNNFYPREAKVQWKVDNALQSGNSQESVTEQDSKDSTYSLSSTLTLSKADYEKHKVYACEVTHQGLSSPVTKSFNRGEC
Consider B6, for which, in assay [3], the “KD fold (SG1 = 1)” value turned out to be 3.6 fold.

B7: M103205H795-MY066/M103202L889-SK1 (antibody, human IgG1, kappa, name in EU numbering)
heavy: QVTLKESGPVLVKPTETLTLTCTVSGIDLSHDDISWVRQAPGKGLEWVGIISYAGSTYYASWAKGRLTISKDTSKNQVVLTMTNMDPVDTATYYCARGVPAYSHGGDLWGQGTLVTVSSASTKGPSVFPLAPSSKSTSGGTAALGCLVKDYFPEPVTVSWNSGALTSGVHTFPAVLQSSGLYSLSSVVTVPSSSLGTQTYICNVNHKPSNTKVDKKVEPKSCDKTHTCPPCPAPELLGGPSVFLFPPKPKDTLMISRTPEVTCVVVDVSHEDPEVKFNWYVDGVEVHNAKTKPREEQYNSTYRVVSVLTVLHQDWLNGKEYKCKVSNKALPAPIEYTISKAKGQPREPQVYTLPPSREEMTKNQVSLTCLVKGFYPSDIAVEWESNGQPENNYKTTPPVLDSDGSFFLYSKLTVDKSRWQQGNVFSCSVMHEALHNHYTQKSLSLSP
light: DIVMTQSPATLSLSPGERATLSCTSSQSVYHANWLSWFQQKPGQPPKLLIYWASTLAYGVPSRFSGSGSGTDFTLTISSLQPEDAATYYCAGGYGGGRYAFGQGTKVEIKRTVAAPSVFIFPPSDEQLKSGTASVVCLLNNFYPREAKVQWKVDNALQSGNSQESVTEQDSKDSTYSLSSTLTLSKADYEKHKVYACEVTHQGLSSPVTKSFNRGEC
On to B7, for which the “KD fold (SG1 = 1)” value in assay [3] worked out at 2.25 fold.
